The values that follow come from article PMC5006159, “Structural basis for early-onset neurological disorders caused by mutations in human selenocysteine synthase” (Scientific Reports, 2016).

Series [1] concerns the molecule itself. Description: SEC; S200 SEC of the soluble, purified His-tagged SepSecS samples; tetramer peak at ~70 min, 'early' peak at ~55 min; self-association. (In general: Size exclusion chromatography separates by hydrodynamic size, large species first.)
Series [2] deals with the molecule itself. In words: crystal structure; holo T325S, sitting drop at +12 °C, lithium citrate and PEG 3,350; orthorhombic, half of the tetramer in the asymmetric unit.
Series [3] concerns the molecule itself. In words: crystal structure; binary complexes with human tRNASec, sitting drop at +12 °C, sodium cacodylate, lithium citrate, PEG 3,350; trigonal, two SepSecS dimers and one tRNASec in the asymmetric unit.

B1: human O-phosphoseryl-tRNASec:selenocysteinyl-tRNASec synthase (SepSecS), wild type (enzyme)
chain: MNRESFAAGERLVSPAYVRQGCEARRSHEHLIRLLLEKGKCPENGWDESTLELFLHELAIMDSNNFLGNCGVGEREGRVASALVARRHYRFIHGIGRSGDISAVQPKAAGSSLLNKITNSLVLDIIKLAGVHTVANCFVVPMATGMSLTLCFLTLRHKRPKAKYIIWPRIDQKSCFKSMITAGFEPVVIENVLEGDELRTDLKAVEAKVQELGPDCILCIHSTTSCFAPRVPDRLEELAVICANYDIPHIVNNAYGVQSSKCMHLIQQGARVGRIDAFVQSLDKNFMVPVGGAIIAGFNDSFIQEISKMYPGRASASPSLDVLITLLSLGSNGYKKLLKERKEMFSYLSNQIKKLSEAYNERLLHTPHNPISLAMTLKTLDEHRDKAVTQLGSMLFTRQVSGARVVPLGSMQTVSGYTFRGFMSHTNNYPCAYLNAASAIGMKMQDVDLFIKRLDRCLKAVRKERSKESDDNYDKTEDVDIEEMALKLDNVLLDTYQDASS
notes: human SepSecS (SEPSECS) cloned into pQE80 with an N-terminal His-tag; PLP cofactor covalently attached to Lys284; Band at ~60 kDa on SDS-PAGE; also called WT SepSecS; WT; not shown: His6, N-terminal, kept
For B1, the stoichiometry N (usually the number of molecules, sites or subunits per partner or assembly) in series [1] was found to be 4.

B2: human SepSecS Thr325Ser variant (enzyme)
chain: MNRESFAAGERLVSPAYVRQGCEARRSHEHLIRLLLEKGKCPENGWDESTLELFLHELAIMDSNNFLGNCGVGEREGRVASALVARRHYRFIHGIGRSGDISAVQPKAAGSSLLNKITNSLVLDIIKLAGVHTVANCFVVPMATGMSLTLCFLTLRHKRPKAKYIIWPRIDQKSCFKSMITAGFEPVVIENVLEGDELRTDLKAVEAKVQELGPDCILCIHSTTSCFAPRVPDRLEELAVICANYDIPHIVNNAYGVQSSKCMHLIQQGARVGRIDAFVQSLDKNFMVPVGGAIIAGFNDSFIQEISKMYPGRASASPSLDVLISLLSLGSNGYKKLLKERKEMFSYLSNQIKKLSEAYNERLLHTPHNPISLAMTLKTLDEHRDKAVTQLGSMLFTRQVSGARVVPLGSMQTVSGYTFRGFMSHTNNYPCAYLNAASAIGMKMQDVDLFIKRLDRCLKAVRKERSKESDDNYDKTEDVDIEEMALKLDNVLLDTYQDASS
notes: human SepSecS (SEPSECS) in pQE80 with an N-terminal His-tag, pathogenic variant made by site-directed mutagenesis; Mutation found in patients (PCH2D); also called T325S; T325S70; source: E. coli SoluBL21(DE3), purified from the soluble fraction, S200 SEC (70 min and 55 min peaks); not shown: His6, N-terminal, kept
On to B2, for which the “stoichiometry N” value in series [2] was determined as 4.

B3: human SepSecS Tyr334Cys variant (enzyme)
chain: MNRESFAAGERLVSPAYVRQGCEARRSHEHLIRLLLEKGKCPENGWDESTLELFLHELAIMDSNNFLGNCGVGEREGRVASALVARRHYRFIHGIGRSGDISAVQPKAAGSSLLNKITNSLVLDIIKLAGVHTVANCFVVPMATGMSLTLCFLTLRHKRPKAKYIIWPRIDQKSCFKSMITAGFEPVVIENVLEGDELRTDLKAVEAKVQELGPDCILCIHSTTSCFAPRVPDRLEELAVICANYDIPHIVNNAYGVQSSKCMHLIQQGARVGRIDAFVQSLDKNFMVPVGGAIIAGFNDSFIQEISKMYPGRASASPSLDVLITLLSLGSNGCKKLLKERKEMFSYLSNQIKKLSEAYNERLLHTPHNPISLAMTLKTLDEHRDKAVTQLGSMLFTRQVSGARVVPLGSMQTVSGYTFRGFMSHTNNYPCAYLNAASAIGMKMQDVDLFIKRLDRCLKAVRKERSKESDDNYDKTEDVDIEEMALKLDNVLLDTYQDASS
notes: human SepSecS (SEPSECS) in pQE80 with an N-terminal His-tag, pathogenic variant made by site-directed mutagenesis; Mutation found in patients (PCH2D); also called Y334C; Y334C70; not shown: His6, N-terminal, kept
Regarding B3, the “stoichiometry N” value in series [3] came out at 4.
